{"source": "paper PMC5419744", "origin": "cited, not measured here", "target": "DNA polymerase III subunit tau (Escherichia coli) (UniProt P06710)", "sequence (P06710 2-643)": "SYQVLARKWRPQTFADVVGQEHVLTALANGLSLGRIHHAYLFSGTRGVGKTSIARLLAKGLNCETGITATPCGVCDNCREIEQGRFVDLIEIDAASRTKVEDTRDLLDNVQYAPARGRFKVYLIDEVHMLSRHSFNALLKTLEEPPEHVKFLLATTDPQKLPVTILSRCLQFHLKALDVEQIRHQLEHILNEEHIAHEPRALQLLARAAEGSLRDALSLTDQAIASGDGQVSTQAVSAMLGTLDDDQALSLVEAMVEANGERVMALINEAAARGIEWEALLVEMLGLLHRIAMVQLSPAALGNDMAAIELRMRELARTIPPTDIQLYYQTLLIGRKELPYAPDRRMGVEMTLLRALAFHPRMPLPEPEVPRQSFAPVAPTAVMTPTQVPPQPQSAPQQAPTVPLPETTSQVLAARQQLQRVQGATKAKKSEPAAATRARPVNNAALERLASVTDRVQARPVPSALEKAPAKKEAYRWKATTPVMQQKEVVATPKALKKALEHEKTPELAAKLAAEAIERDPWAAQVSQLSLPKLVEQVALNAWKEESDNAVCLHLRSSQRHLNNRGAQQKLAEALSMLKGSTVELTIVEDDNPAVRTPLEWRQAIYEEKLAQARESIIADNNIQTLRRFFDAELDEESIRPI", "data": [{"substance": "DNA polymerase III subunit alpha (from UniProt P10443)", "values": [{"measurement": "Kd", "result": 0.3, "unit": "nM"}]}]}
